Laboratory results published in patent US20230034906A1 (TRINOMAB BIOTECH, published 2023).

Experiments:
Assay in all cases: indirect ELISA, antibody titrated on gB glycoprotein mutant
[1] = molecular target: T1, gB_Towne protein with N405 mutated into glutamine (human cytomegalovirus, strain Towne, UniProt F5HB53 25-700)
T1 chain: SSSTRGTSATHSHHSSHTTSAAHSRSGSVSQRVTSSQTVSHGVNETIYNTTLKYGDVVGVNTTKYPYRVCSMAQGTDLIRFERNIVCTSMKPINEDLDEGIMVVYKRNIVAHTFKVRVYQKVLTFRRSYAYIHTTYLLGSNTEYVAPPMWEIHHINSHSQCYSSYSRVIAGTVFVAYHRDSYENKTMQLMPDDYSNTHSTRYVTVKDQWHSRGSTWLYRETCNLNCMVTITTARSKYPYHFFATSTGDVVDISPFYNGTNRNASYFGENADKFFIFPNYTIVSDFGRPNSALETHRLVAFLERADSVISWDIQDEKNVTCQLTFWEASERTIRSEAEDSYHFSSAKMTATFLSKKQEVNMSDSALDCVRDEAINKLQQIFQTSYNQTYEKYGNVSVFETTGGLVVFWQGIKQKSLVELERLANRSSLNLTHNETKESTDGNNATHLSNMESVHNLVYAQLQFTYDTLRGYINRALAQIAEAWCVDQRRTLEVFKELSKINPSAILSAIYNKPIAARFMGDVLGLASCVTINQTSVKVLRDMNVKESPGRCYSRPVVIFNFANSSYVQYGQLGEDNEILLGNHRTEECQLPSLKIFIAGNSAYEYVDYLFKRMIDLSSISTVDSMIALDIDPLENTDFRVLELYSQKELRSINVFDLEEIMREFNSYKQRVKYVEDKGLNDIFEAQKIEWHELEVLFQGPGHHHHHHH

[2] = molecular target: T2, gB_Towne protein with N409 mutated into glutamine (human cytomegalovirus, strain Towne, UniProt F5HB53 25-700)
T2 chain: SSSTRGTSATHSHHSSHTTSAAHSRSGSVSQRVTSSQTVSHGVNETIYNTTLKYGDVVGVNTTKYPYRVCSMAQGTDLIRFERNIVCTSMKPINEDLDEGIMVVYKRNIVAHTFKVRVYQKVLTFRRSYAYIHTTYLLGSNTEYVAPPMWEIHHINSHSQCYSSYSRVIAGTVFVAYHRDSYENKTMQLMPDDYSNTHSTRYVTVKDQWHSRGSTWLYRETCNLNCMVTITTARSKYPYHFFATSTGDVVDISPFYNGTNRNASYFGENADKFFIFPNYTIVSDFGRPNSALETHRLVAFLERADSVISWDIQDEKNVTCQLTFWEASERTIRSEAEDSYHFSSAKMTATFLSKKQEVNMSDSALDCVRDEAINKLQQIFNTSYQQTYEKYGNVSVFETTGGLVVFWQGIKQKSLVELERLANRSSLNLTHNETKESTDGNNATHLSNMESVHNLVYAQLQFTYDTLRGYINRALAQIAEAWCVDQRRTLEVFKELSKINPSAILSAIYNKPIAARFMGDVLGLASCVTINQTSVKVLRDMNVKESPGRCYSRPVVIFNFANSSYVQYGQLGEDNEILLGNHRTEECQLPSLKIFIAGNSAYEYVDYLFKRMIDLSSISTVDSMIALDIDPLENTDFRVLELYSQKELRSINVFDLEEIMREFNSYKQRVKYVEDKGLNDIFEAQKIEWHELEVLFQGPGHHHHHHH

[3] = molecular target: T3, gB_Towne protein with N281 mutated into glutamine (human cytomegalovirus, strain Towne, UniProt F5HB53 25-700)
T3 chain: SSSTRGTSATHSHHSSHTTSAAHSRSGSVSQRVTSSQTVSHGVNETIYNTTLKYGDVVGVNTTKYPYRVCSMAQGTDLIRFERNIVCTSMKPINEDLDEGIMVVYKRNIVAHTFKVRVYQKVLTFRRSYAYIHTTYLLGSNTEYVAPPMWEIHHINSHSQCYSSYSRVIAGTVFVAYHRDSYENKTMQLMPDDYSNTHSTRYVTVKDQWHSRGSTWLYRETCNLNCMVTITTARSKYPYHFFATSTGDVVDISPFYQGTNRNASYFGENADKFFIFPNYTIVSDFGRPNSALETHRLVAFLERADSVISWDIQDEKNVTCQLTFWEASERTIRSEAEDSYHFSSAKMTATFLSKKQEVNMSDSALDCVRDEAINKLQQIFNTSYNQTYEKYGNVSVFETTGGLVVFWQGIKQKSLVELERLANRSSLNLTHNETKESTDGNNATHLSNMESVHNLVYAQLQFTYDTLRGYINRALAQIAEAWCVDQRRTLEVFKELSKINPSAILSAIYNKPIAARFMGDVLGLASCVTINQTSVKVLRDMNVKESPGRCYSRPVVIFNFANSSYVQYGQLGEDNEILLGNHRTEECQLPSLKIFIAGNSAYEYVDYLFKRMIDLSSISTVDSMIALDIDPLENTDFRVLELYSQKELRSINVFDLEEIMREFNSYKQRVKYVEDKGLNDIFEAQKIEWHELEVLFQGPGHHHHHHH

[4] = molecular target: T4, gB_Towne protein with N383 mutated into glutamine (human cytomegalovirus, strain Towne, UniProt F5HB53 25-700)
T4 chain: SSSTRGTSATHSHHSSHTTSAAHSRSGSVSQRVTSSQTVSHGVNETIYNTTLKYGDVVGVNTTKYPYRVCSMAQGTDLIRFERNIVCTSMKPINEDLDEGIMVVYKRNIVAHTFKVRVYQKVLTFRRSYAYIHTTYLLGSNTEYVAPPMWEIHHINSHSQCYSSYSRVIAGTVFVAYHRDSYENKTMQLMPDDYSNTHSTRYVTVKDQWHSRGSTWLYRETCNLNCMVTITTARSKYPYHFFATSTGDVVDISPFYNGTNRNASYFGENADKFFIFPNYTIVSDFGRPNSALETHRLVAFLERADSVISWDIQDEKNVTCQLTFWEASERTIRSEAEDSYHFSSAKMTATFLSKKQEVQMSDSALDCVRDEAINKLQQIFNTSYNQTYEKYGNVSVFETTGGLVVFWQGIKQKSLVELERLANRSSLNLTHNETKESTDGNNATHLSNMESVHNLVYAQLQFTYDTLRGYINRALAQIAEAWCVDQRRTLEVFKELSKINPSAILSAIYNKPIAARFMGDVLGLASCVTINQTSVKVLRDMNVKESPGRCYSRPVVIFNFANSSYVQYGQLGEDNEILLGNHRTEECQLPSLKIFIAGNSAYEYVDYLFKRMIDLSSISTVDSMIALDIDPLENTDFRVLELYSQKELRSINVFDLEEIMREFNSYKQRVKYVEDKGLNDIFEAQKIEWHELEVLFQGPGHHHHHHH

Measured: binding result

B1: TRN1019 (antibody, V domains shown)
VH: QVQLVQSGAEVKKPGESLKISCKGSGYTFTNYWIGWVRQMPGAGLEWMAIIFPRDSYSAYSPSFQGRVTISVDKSISTAYLHWSSLEASDTAVYYCAIYNDLRSGNSWGQGTPLIVSS
VL: DIQMTQSPSSLSASVGDRVTITCRASQSITKYLNWYQQKPGRAPKLLIHTTSTLQSGVPSRFSGSGSGTDFTLTISSLQLEDFGTYYCQQSFSTLWTFGQGTKLDIKR
notes: Fully human antibody; kappa light chain
binds: all assays above
